# Reference: article PMC2780581 (Biochemistry, 2008)
# B1: (S)-2-hydroxypropylphosphonic acid epoxidase from Pseudomonas syringae (enzyme, Pseudomonas syringae PB-5123, UniProt Q9JN69 1-190, looked up)
# chain: MDVRTLAVGKAHLEALLATRKMTLEHLQDVRHDATQVYFDGLEHLQNVAQYLAIPLSEFFVGQTQSDLDDGVKIARRNGGFKREEIRGGVHYYTYEHLVTTNQDPGLMALRLDLHSDDEQPLRLNGGHGSREIVYVTRGAVRVRWVGDNDELKEDVLNEGDSIFILPNVPHSFTNHVGGAKSEIIAINYG
# modifications: Tyr95 highly likely post-translationally hydroxylated to DOPA
# Biological target: the molecule itself
# Assay: SEC
protein,measurement,value
B1,stoichiometry N,3
